Assays:
[1] = test system: T1, insulin receptor fragment (Peptide No. 1, phosphorylated)
T1 sequence: TRNIXQTNYYRK

[2] = target: α-2-macroglobulin; assay: FITC-trypsin on α-2-macroglobulin-loaded hydrogel microspots; CCD camera
[3] = target: Ferritin; assay: FITC-trypsin on ferritin-loaded hydrogel microspots (negative control); CCD camera

Substance | loss of fluorescent signal (removal of the phosphate group, detected with anti-phosphotyrosine antibody) [1] | Flourescence Intensity (au) [2] [au] | Flourescence Intensity (au) [3] [au]
Leucocyte Antigene Related (LAR) protein tyrosin phosphatase | the LAR-PTPase selectively removes the phosphate group substantially completely from Peptide No. 1 |  | 
FITC-labeled trypsin (enzyme) |  | 800 | 20

— US20050100951A1
